From patent publication US8691944

How the values were obtained:
[1] = target: basic fibroblast growth factor (bFGF, FGF-2) (UniProt P09038); assay: equilibrium or kinetic binding, not said which
[2] = target: transforming growth factor-β1 (TGF-β1) (UniProt P01137); assay: equilibrium or kinetic binding, not said which
[3] = target: platelet-derived growth factor-BB (PDGF-BB) (UniProt P01127); assay: equilibrium binding
[4] = target: basic fibroblast growth factor (bFGF, FGF-2) (UniProt P09038); assay: binding assay, method not restated
[5] = target: platelet-derived growth factor-BB (PDGF-BB) (UniProt P01127); assay: binding assay, method not restated
[6] = target: transforming growth factor-β1 (TGF-β1) (UniProt P01137); assay: binding assay, method not restated
[7] = target: vascular endothelial growth factor A (VEGF-A) (UniProt P15692); assay: binding assay, method not restated
Chain of vascular endothelial growth factor A (VEGF-A) (P15692 other isoform, or with tags, fused parts or gaps limits assumed): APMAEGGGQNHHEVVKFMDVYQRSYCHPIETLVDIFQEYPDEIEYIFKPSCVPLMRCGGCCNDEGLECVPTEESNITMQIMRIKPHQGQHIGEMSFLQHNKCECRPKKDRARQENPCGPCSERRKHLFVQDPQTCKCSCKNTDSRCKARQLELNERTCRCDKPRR

Chain of transforming growth factor-β1 (TGF-β1) (P01137 279-390 limits assumed): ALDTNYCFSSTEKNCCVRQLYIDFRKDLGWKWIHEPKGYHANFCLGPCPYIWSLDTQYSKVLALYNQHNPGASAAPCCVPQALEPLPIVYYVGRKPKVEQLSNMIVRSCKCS
Chain of platelet-derived growth factor-BB (PDGF-BB) (P01127 82-190 limits assumed): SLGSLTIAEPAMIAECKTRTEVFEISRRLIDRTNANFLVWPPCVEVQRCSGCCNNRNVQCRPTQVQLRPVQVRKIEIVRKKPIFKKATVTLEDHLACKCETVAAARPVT
Chain of basic fibroblast growth factor (bFGF, FGF-2) (P09038 143-288 limits assumed): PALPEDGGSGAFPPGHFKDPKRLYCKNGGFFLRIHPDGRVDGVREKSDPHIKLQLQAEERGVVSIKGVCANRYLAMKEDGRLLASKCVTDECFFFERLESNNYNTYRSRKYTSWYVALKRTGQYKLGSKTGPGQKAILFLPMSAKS

Kd [1]: 58 nM | Kd [2]: 74 nM | Kd [3]: 350 nM | Kd [4]: 100 nM | Kd [5]: 100 nM | Kd [6]: 100 nM | Kd [7]: 100 nM
Substance: IIICS, variably-spliced domain of fibronectin (from UniProt P02751 2083-2202)
